{"source": "the RNAGym collection of RNA variant scans (doi:10.1073/pnas.2313332121)", "parents": {"B1": {"name": "TPR t1 (parent)", "chain": "GACCAAUCUGCCCUCAGAGCUCGAGAACAUCUUCGGAUGCAGAGGAGGCAGGCUUCGGUGGCGCGAUAGCGCCAACGUCCUCAACCUCCAAUGCAUCCCACCACAUGAUGAUGCCUGAAGAGCCUUGGUUUUUUG"}}, "data": [{"variants_of": "B1", "test": "polymerase ribozyme fitness, log enrichment relative to wild type (log ratio); higher = more active; in vitro selection for triplet polymerase activity", "in_short": "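Libraries of mutants in each subunit of a heterodimeric triplet polymerase ribozyme were generated by PCR and transcribed. In triplicate, each went through one in vitro selection round: annealing with biotinylated primer, partner subunit and triplets; frozen incubation at −7 °C; gel excision of extended constructs; streptavidin-bead capture; RT-PCR. Fitness, taken from Illumina sequencing of input and output libraries, is the logarithm of a genotype's enrichment over wild-type enrichment, averaged across replicates with inverse-variance weights. The logarithm is base 2, and genotypes needed ≥10 input reads and ≥1 read per output to be kept.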", "values": [{"variant": "U116C U131G", "polymerase ribozyme fitness (log ratio)": -1.05}, {"variant": "G113U U134G", "polymerase ribozyme fitness (log ratio)": -1.78}, {"variant": "G113A", "polymerase ribozyme fitness (log ratio)": -1.01}, {"variant": "G113C", "polymerase ribozyme fitness (log ratio)": -2.02}, {"variant": "G113U", "polymerase ribozyme fitness (log ratio)": -2.64}, {"variant": "C124A U131A", "polymerase ribozyme fitness (log ratio)": 1.79}, {"variant": "G117C G120U U131G", "polymerase ribozyme fitness (log ratio)": -4.67}, {"variant": "G113C G120C", "polymerase ribozyme fitness (log ratio)": -2.85}, {"variant": "G113C U125G", "polymerase ribozyme fitness (log ratio)": -2.58}, {"variant": "G113C U125C", "polymerase ribozyme fitness (log ratio)": -2.26}, {"variant": "G113U G122U", "polymerase ribozyme fitness (log ratio)": -2.45}, {"variant": "G117C U126G", "polymerase ribozyme fitness (log ratio)": -3.22}, {"variant": "G127C U129C", "polymerase ribozyme fitness (log ratio)": -2.22}, {"variant": "G120A G135C", "polymerase ribozyme fitness (log ratio)": 0.457}, {"variant": "U112G", "polymerase ribozyme fitness (log ratio)": 0.661}, {"variant": "U112A", "polymerase ribozyme fitness (log ratio)": 1.34}, {"variant": "U112C", "polymerase ribozyme fitness (log ratio)": 1.39}, {"variant": "C114U", "polymerase ribozyme fitness (log ratio)": -1.7}, {"variant": "C114A", "polymerase ribozyme fitness (log ratio)": -1.39}, {"variant": "C114G", "polymerase ribozyme fitness (log ratio)": -2.37}, {"variant": "A121U C124U", "polymerase ribozyme fitness (log ratio)": 2.15}, {"variant": "G120C A121U", "polymerase ribozyme fitness (log ratio)": 2.44}, {"variant": "G117C G120U", "polymerase ribozyme fitness (log ratio)": -4.51}, {"variant": "G128A U131A", "polymerase ribozyme fitness (log ratio)": -2.44}, {"variant": "C123U U129A", "polymerase ribozyme fitness (log ratio)": 0.307}, {"variant": "A119C A121U", "polymerase ribozyme fitness (log ratio)": -1.38}, {"variant": "C124A U134G", "polymerase ribozyme fitness (log ratio)": 3.41}, {"variant": "U116C U133A", "polymerase ribozyme fitness (log ratio)": -0.508}, {"variant": "G113C C114U C115G C124U", "polymerase ribozyme fitness (log ratio)": -3.2}, {"variant": "C114G G122U", "polymerase ribozyme fitness (log ratio)": -2.87}, {"variant": "U112G U116C", "polymerase ribozyme fitness (log ratio)": -0.775}, {"variant": "G117A U130G", "polymerase ribozyme fitness (log ratio)": -1.63}, {"variant": "G120U U132A", "polymerase ribozyme fitness (log ratio)": 0.126}, {"variant": "U116A C124A", "polymerase ribozyme fitness (log ratio)": 0.141}, {"variant": "G120C G127C", "polymerase ribozyme fitness (log ratio)": -0.522}, {"variant": "G120C G127A", "polymerase ribozyme fitness (log ratio)": 0.0309}, {"variant": "A121C G127A G128U", "polymerase ribozyme fitness (log ratio)": -0.559}, {"variant": "C114U U133A", "polymerase ribozyme fitness (log ratio)": -1.63}, {"variant": "G113C U130G", "polymerase ribozyme fitness (log ratio)": -2.88}, {"variant": "C115G G120A", "polymerase ribozyme fitness (log ratio)": -1.35}, {"variant": "G117U U131G", "polymerase ribozyme fitness (log ratio)": -4.64}, {"variant": "G113U A118U", "polymerase ribozyme fitness (log ratio)": -2.55}, {"variant": "G117U U133A", "polymerase ribozyme fitness (log ratio)": -3.13}, {"variant": "U129C G135U", "polymerase ribozyme fitness (log ratio)": -0.0345}, {"variant": "U129C G135C", "polymerase ribozyme fitness (log ratio)": 0.513}, {"variant": "U116C G117U", "polymerase ribozyme fitness (log ratio)": -1.01}, {"variant": "U112G G122A G128A", "polymerase ribozyme fitness (log ratio)": -2.62}, {"variant": "U112G G120U G122C", "polymerase ribozyme fitness (log ratio)": -1.48}, {"variant": "G113A C123U", "polymerase ribozyme fitness (log ratio)": -1.32}, {"variant": "G113A C123A", "polymerase ribozyme fitness (log ratio)": -1.45}, {"variant": "A121U U133A", "polymerase ribozyme fitness (log ratio)": 1.83}, {"variant": "C115A G128U U133A", "polymerase ribozyme fitness (log ratio)": -3.05}, {"variant": "G117C A121G", "polymerase ribozyme fitness (log ratio)": -2.23}, {"variant": "G113A G120U", "polymerase ribozyme fitness (log ratio)": -2.35}, {"variant": "C115U A119U U130G", "polymerase ribozyme fitness (log ratio)": -1.35}, {"variant": "G122A C123A", "polymerase ribozyme fitness (log ratio)": -0.665}, {"variant": "G117U G135U", "polymerase ribozyme fitness (log ratio)": -1.25}, {"variant": "U112A U129A", "polymerase ribozyme fitness (log ratio)": 0.929}, {"variant": "G117U A119U", "polymerase ribozyme fitness (log ratio)": -3.92}, {"variant": "G113C A119C", "polymerase ribozyme fitness (log ratio)": -4.37}, {"variant": "G113C A119G", "polymerase ribozyme fitness (log ratio)": -0.737}, {"variant": "C114A A121U", "polymerase ribozyme fitness (log ratio)": -1.18}, {"variant": "C114A C123U", "polymerase ribozyme fitness (log ratio)": -3.16}, {"variant": "G120C U133A", "polymerase ribozyme fitness (log ratio)": 1.48}, {"variant": "G117U G127U", "polymerase ribozyme fitness (log ratio)": -4.77}, {"variant": "C115U G128U", "polymerase ribozyme fitness (log ratio)": -4.06}, {"variant": "C114G C115U", "polymerase ribozyme fitness (log ratio)": -4.37}, {"variant": "C123G U130G", "polymerase ribozyme fitness (log ratio)": 1.48}, {"variant": "C123G G135U", "polymerase ribozyme fitness (log ratio)": 1.4}, {"variant": "C123G U126G", "polymerase ribozyme fitness (log ratio)": -0.0102}, {"variant": "G113C G122A C123U", "polymerase ribozyme fitness (log ratio)": -3.7}, {"variant": "C115A U129C", "polymerase ribozyme fitness (log ratio)": -2.62}, {"variant": "G117U U129G", "polymerase ribozyme fitness (log ratio)": -4.23}, {"variant": "G113A A118C", "polymerase ribozyme fitness (log ratio)": -2.55}, {"variant": "G113A A118U", "polymerase ribozyme fitness (log ratio)": -2.67}, {"variant": "C124A G127C", "polymerase ribozyme fitness (log ratio)": 0.796}, {"variant": "G113A C115A", "polymerase ribozyme fitness (log ratio)": -3.51}, {"variant": "C114G U133A", "polymerase ribozyme fitness (log ratio)": -2.37}, {"variant": "C115A U129A U131C", "polymerase ribozyme fitness (log ratio)": -0.649}, {"variant": "C114A U129G U130C", "polymerase ribozyme fitness (log ratio)": -2.79}, {"variant": "C114A U131A", "polymerase ribozyme fitness (log ratio)": -0.246}, {"variant": "U112A U131A", "polymerase ribozyme fitness (log ratio)": 1.02}, {"variant": "C115U A118U U130G", "polymerase ribozyme fitness (log ratio)": -1.69}, {"variant": "U112C A119U", "polymerase ribozyme fitness (log ratio)": 1.24}, {"variant": "U112A C123A", "polymerase ribozyme fitness (log ratio)": 1.45}, {"variant": "G122A U133G", "polymerase ribozyme fitness (log ratio)": -0.871}, {"variant": "C124G G128C", "polymerase ribozyme fitness (log ratio)": -0.216}, {"variant": "G120C U129A", "polymerase ribozyme fitness (log ratio)": -1.15}, {"variant": "U116G C124A", "polymerase ribozyme fitness (log ratio)": 0.803}, {"variant": "U125G U132C", "polymerase ribozyme fitness (log ratio)": -0.45}, {"variant": "C114U G120A C123U", "polymerase ribozyme fitness (log ratio)": -1.64}, {"variant": "C115A U132A", "polymerase ribozyme fitness (log ratio)": 0.0612}, {"variant": "U130C", "polymerase ribozyme fitness (log ratio)": 0.0585}, {"variant": "U130A", "polymerase ribozyme fitness (log ratio)": -0.523}, {"variant": "U130G", "polymerase ribozyme fitness (log ratio)": -0.361}, {"variant": "G117C A119U", "polymerase ribozyme fitness (log ratio)": -2.92}, {"variant": "U112A A121U U125A", "polymerase ribozyme fitness (log ratio)": 1.36}, {"variant": "C124U U125A", "polymerase ribozyme fitness (log ratio)": 0.926}, {"variant": "G113U A119C G122U", "polymerase ribozyme fitness (log ratio)": -4.35}, {"variant": "C115U G120A", "polymerase ribozyme fitness (log ratio)": -2.24}, {"variant": "C114U U116A", "polymerase ribozyme fitness (log ratio)": -5.58}, {"variant": "U112A G122A", "polymerase ribozyme fitness (log ratio)": -0.631}, {"variant": "U112A G122C", "polymerase ribozyme fitness (log ratio)": 0.265}, {"variant": "C114A C124A", "polymerase ribozyme fitness (log ratio)": -1.12}, {"variant": "G120A U130G", "polymerase ribozyme fitness (log ratio)": 0.245}, {"variant": "G120A U130C", "polymerase ribozyme fitness (log ratio)": 0.856}, {"variant": "A121U C123G", "polymerase ribozyme fitness (log ratio)": 1.92}, {"variant": "G117C G128A", "polymerase ribozyme fitness (log ratio)": -5.33}, {"variant": "A121C C123U", "polymerase ribozyme fitness (log ratio)": 0.54}, {"variant": "G127A G135U", "polymerase ribozyme fitness (log ratio)": -2.16}, {"variant": "C115U G120A A121C", "polymerase ribozyme fitness (log ratio)": -2.04}, {"variant": "C114A U129C", "polymerase ribozyme fitness (log ratio)": -1.63}, {"variant": "C115U U129G", "polymerase ribozyme fitness (log ratio)": -2.15}, {"variant": "G113A G127U", "polymerase ribozyme fitness (log ratio)": -3.27}, {"variant": "C123A G128C", "polymerase ribozyme fitness (log ratio)": -0.87}, {"variant": "A121C U133A", "polymerase ribozyme fitness (log ratio)": -0.797}, {"variant": "G127A U129G", "polymerase ribozyme fitness (log ratio)": -1.62}, {"variant": "U126A U130A", "polymerase ribozyme fitness (log ratio)": -3.19}, {"variant": "A121C U126A", "polymerase ribozyme fitness (log ratio)": 0.358}, {"variant": "U112A C115A U125G", "polymerase ribozyme fitness (log ratio)": 0.414}, {"variant": "G120U C123A", "polymerase ribozyme fitness (log ratio)": -0.201}, {"variant": "G128U U129C", "polymerase ribozyme fitness (log ratio)": -0.805}, {"variant": "U116G C123A", "polymerase ribozyme fitness (log ratio)": -3.25}, {"variant": "G120A C123U", "polymerase ribozyme fitness (log ratio)": 1.96}, {"variant": "A121C G122A", "polymerase ribozyme fitness (log ratio)": 1.31}, {"variant": "C115U C123G", "polymerase ribozyme fitness (log ratio)": -0.112}, {"variant": "U112A G127A", "polymerase ribozyme fitness (log ratio)": 0.262}, {"variant": "U112C G122A", "polymerase ribozyme fitness (log ratio)": 0.065}, {"variant": "U116G U125A U133A", "polymerase ribozyme fitness (log ratio)": -4.19}, {"variant": "U112C C124A", "polymerase ribozyme fitness (log ratio)": 0.693}, {"variant": "G117C U131C", "polymerase ribozyme fitness (log ratio)": -3.27}, {"variant": "A121C U129A", "polymerase ribozyme fitness (log ratio)": -1.04}, {"variant": "A111U C124U", "polymerase ribozyme fitness (log ratio)": -3.09}, {"variant": "U112A A118U", "polymerase ribozyme fitness (log ratio)": 0.895}, {"variant": "U112A G128C", "polymerase ribozyme fitness (log ratio)": -2.66}, {"variant": "C114A U125A", "polymerase ribozyme fitness (log ratio)": -1.73}, {"variant": "U112G C124U", "polymerase ribozyme fitness (log ratio)": 0.835}, {"variant": "G120U C124U", "polymerase ribozyme fitness (log ratio)": 1.38}, {"variant": "A121G U125A", "polymerase ribozyme fitness (log ratio)": 2.32}, {"variant": "G120U G127C", "polymerase ribozyme fitness (log ratio)": -0.262}, {"variant": "G120U G127U", "polymerase ribozyme fitness (log ratio)": 1.64}, {"variant": "G117U U130C", "polymerase ribozyme fitness (log ratio)": -2.04}, {"variant": "A118U G120A", "polymerase ribozyme fitness (log ratio)": -0.267}, {"variant": "G120C C124U", "polymerase ribozyme fitness (log ratio)": 1.74}, {"variant": "A121G G128A", "polymerase ribozyme fitness (log ratio)": 0.956}, {"variant": "A111G U126C", "polymerase ribozyme fitness (log ratio)": 0.0972}, {"variant": "C114U U125A", "polymerase ribozyme fitness (log ratio)": -3.07}, {"variant": "G113A G122C G135C", "polymerase ribozyme fitness (log ratio)": -0.874}, {"variant": "C124G U126A", "polymerase ribozyme fitness (log ratio)": 1.15}]}]}
